Source: paper PMC2724299 (Nucleic Acids Research, 2009)

Target: the molecule itself
Experiment: SEC

B1: PAE-EndA linker variant LPEI (6×His-PAE0789 fused through -Leu-Pro-Glu-Ile- to PAE2269) (enzyme, Pyrobaculum aerophilum)
chain: MDVLQEQVFKDLKSRGFKIIEQLDDKIFIAEKKERYLFYVMVEGVEVTIQTLLSVINMGETLSMPVVLALVSNDGTVTYYYVRKIRLPRNIYAEAVLPEIMIGYLRGLAVIVEDVEFARRLYKEGFYGRFLGYDKVKRDEVEKINAPLILGLYEALYLAEKGRLKVMGEDGREVAPEELAALGRERMRNFDEIYKIYKYFRDLGYVVKSGLKFGALFSVYEKGPGIDHAPMVVVFLEPDKGISATDITRGGRLSHSVRKTWTLATVLRQTGEVVLLGFGWARL
- stoichiometry N: 2
